{"source": "paper PMC11579453", "about": "(Nature Communications, 2024)", "key": {"[1]": {"biological_target": "WT α-Synuclein amyloid fibrils (human) (UniProt P37840)", "assay": "microfluidic diffusional sizing; Alexa647-labelled BRICHOS held constant (three concentrations a curve set), α-Syn fibrils varied between 0.01 and 24 µM (monomer equivalents), equilibrium within 2 hours; global fit of Kd and stoichiometry"}, "Aβ42 amyloid fibrils": {"biological_target": "Aβ42 amyloid fibrils (UniProt P05067)", "assay": "microfluidic diffusional sizing; Alexa647-labelled BRICHOS held constant (three concentrations a curve set), Aβ42 fibrils varied between 0.01 and 24 µM (monomer equivalents), incubated 48 h; global fit of Kd and stoichiometry"}, "[2]": {"biological_target": "WT α-Synuclein amyloid fibrils (human) (UniProt P37840)", "assay": "microfluidic diffusional sizing; Alexa647-labelled BRICHOS held constant (three concentrations a curve set), α-Syn fibrils varied between 0.01 and 24 µM (monomer equivalents), equilibrium within 2 hours; global fit of Kd and stoichiometry", "remark": "listed apart in the source"}, "[3]": {"biological_target": "WT α-Synuclein amyloid fibrils (human) (UniProt P37840)", "assay": "NMR signal intensity ([15N,1H]-HMQC), competition; 100 µM 15N-labelled α-Syn monomer with 540 µM unlabelled α-Syn fibrils, 2 h at 4 °C, then unlabelled Var II added at 100, 300 or 500 µM, followed for ~120 min; 25 mM phosphate, 25 mM NaCl, pH ~6.8"}, "[4]": {"biological_target": "WT α-Synuclein amyloid fibrils (human) (UniProt P37840)", "assay": "single-molecule TIRF microscopy (single particle tracking); α-Syn fibrils immobilised on a glass coverslip, blocked with BSA; Atto647-labelled Var II added at 1-100 nM in PBS"}, "[5]": {"biological_target": "the molecule itself", "assay": "multi-angle light scattering; proSP-C BRICHOS alone in solution; molecular mass read out; conditions not stated"}, "[6]": {"biological_target": "T1, proSP-C BRICHOS (K114I, R139Q) (UniProt P11686 90-197, K114I | R139Q, Alexa647 label in the microfluidic diffusional sizing (site not stated); Atto647 succinimidyl ester (amine labelling) in the single-molecule microscopy; 15N labelled in the NMR binding experiments …)", "T1 construct": "BRICHOS domain of proSP-C, residues 90-197, with two salt-bridge mutations of the trimer interface; Monomer by light scattering, diffusional sizing and NMR structure; also called variant II; Var II; source: E. coli BL21(DE3*) pLysS, purified (Ni-NTA, TEV digestion, Ni chromatography, SEC); not shown: His tag, N-terminal, cleaved; NT* solubility tag, N-terminal, cleaved", "T1 sequence (looked up)": "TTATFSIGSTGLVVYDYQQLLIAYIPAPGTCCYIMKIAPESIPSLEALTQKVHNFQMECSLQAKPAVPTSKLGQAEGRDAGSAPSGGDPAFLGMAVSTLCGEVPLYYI", "assay": "NMR titration; 15N-labelled Var II, [15N,1H]-TROSY, peptide added at 100 µM to 2 mM; 25 mM phosphate, 25 mM NaCl, pH ~6.8, 2.5% DMSO, 303 K", "conditions": "both partners purified"}, "[7]": {"conditions": "scale: monomer units in the fibril per BRICHOS molecule"}}, "note": "Like-named read-outs stand apart in the source and are kept apart here.", "data": [{"molecule": "WT proSP-C BRICHOS domain (residues 90-197) (from UniProt P11686 90-197) (domain or fragment)", "values": [{"measurement": "Kd", "setting": "[1]", "result": 696, "unit": "nM"}, {"measurement": "stoichiometry N", "setting": "[1]; scale: monomer units of α-Syn per BRICHOS molecule", "result": 38}, {"measurement": "Kd", "setting": "Aβ42 amyloid fibrils", "result": 192, "unit": "nM"}, {"measurement": "stoichiometry N", "setting": "Aβ42 amyloid fibrils; scale: Aβ42 monomer units on the fibril per BRICHOS molecule", "result": 8}]}, {"molecule": "proSP-C BRICHOS (E135R, R139E) (from UniProt P11686 90-197) (domain or fragment)", "values": [{"measurement": "Kd", "setting": "[1]", "result": 1260, "unit": "nM"}, {"measurement": "stoichiometry N", "setting": "[1]; [7]", "result": 18}, {"measurement": "Kd", "setting": "[2]", "result": 1.26, "unit": "nM"}]}, {"molecule": "proSP-C BRICHOS (K114I, R139Q) (from UniProt P11686 90-197) (domain or fragment)", "values": [{"measurement": "Kd", "setting": "[1]", "result": 450, "unit": "nM"}, {"measurement": "stoichiometry N", "setting": "[1]; scale: monomer units in the fibrils per BRICHOS molecule", "result": 7}, {"measurement": "percent of fibril-bound monomeric α-Syn released (100 µM Var II)", "setting": "[3]", "result": 25, "unit": "%"}, {"measurement": "percent of fibril-bound monomeric α-Syn released (300 µM Var II)", "setting": "[3]", "result": 50, "unit": "%"}, {"measurement": "percent of fibril-bound monomeric α-Syn released (500 µM Var II)", "setting": "[3]", "result": 65, "unit": "%"}, {"measurement": "residence time on the fibrils", "setting": "[4]", "result": "350 to 400", "unit": "ms"}, {"measurement": "residence time on the fibrils (three exemplary molecules)", "setting": "[4]", "result": 100, "unit": "s"}, {"measurement": "Kd", "setting": "Aβ42 amyloid fibrils", "result": 21.4, "unit": "nM"}, {"measurement": "stoichiometry N", "setting": "Aβ42 amyloid fibrils; [7]", "result": 6}, {"measurement": "Kd", "setting": "[2]", "result": 450000, "unit": "nM"}]}, {"molecule": "WT proSP-C BRICHOS domain (residues 90-197) (domain or fragment, UniProt P11686 90-197, looked up, Alexa647 label in the microfluidic diffusional sizing (site not stated); 15N,13C labelled for NMR, BRICHOS domain of the lung surfactant protein C precursor (proSP-C), residues 90-197; Homotrimer by light scattering, diffusional sizing and NMR structure; Disulfide bridges 120-148 and 121-189 were restrained in the structure calculation; BMRB entries 34811 and 34813 are printed without saying which is the trimer; also called WT BRICHOS; trimeric proSP-C BRICHOS; not shown: His tag, N-terminal, …) TTATFSIGSTGLVVYDYQQLLIAYKPAPGTCCYIMKIAPESIPSLEALTRKVHNFQMECSLQAKPAVPTSKLGQAEGRDAGSAPSGGDPAFLGMAVSTLCGEVPLYYI", "values": [{"measurement": "stoichiometry N", "setting": "[5]", "result": 3}]}, {"molecule": "VLEMGSGSGSKKVVVVVKK (model client peptide, designed to be able to form a beta hairpin; said to represent part of the transmembrane helical segment of native proSP-C; Dissolved in DMSO at 20 mM stock; also called substrate peptide; source: synthetic peptide; bought: GL Biochem, Shanghai)", "note": "[client peptide B]", "values": [{"measurement": "Kd", "setting": "[6]", "result": "~800000", "unit": "nM"}]}]}
